± gives the uncertainty stated by the source.
B1: Protein S100-G, residues 1 to 79; numbered along this chain, P02633 (parent)
chain: MSAKKSPEELKGIFEKYAAKEGDPNQLSKEELKLLLQTEFPSLLKGPSTLDELFEELDKNGDGEVSFEEFQVLVKKISQ

Variants of: B1
Assay: abundance fitness (aPCA) (normalised: wild type 0, dead -1); higher = more abundant; growth selection in yeast, the domain comes from the species named
Details: Bos taurus
MSAKKSPEELKGIFEKYAAKEGDPNQLSKEELKLLLQTEFPSLLKGPSTLDELFEELDKNFDGEVSFEEFQVLVKKISQ [G61F] gave an abundance fitness of -0.006 ± 0.089.
With MSAKKSPEELKGIFEKYAAKEGDPNQLSKEELKLLLQTEFPSLLKGPSTLDELFEELDKNHDGEVSFEEFQVLVKKISQ [G61H] the abundance fitness was -0.163 ± 0.081.
MSAKKSPEELKGIFEKYAAKEGDPNQLSKEELKLLLQTEFPSLLKGPSTLDELFEELDKNYDGEVSFEEFQVLVKKISQ [G61Y] showed an abundance fitness of -0.065 ± 0.083.
MSAKKSPEELKGIFEKYAAKEGDPNQLSKEELKLLLQTEFPSLLKGPSTLDELFEELDKNSDGEVSFEEFQVLVKKISQ [G61S] gave an abundance fitness of 0.019 ± 0.063.
In the case of MSAKKSPEELKGIFEKYAAKEGDPNQLSKEELKLLLQTEFPSLLKGPSTLDELFEELDKNVDGEVSFEEFQVLVKKISQ [G61V], the abundance fitness is reported as -0.021 ± 0.073.
Variant MSAKKSPEELKGIFEKYAAKEGDPNQLSKEELKLLLQTEFPSLLKGPSTLDELFEELDKNKDGEVSFEEFQVLVKKISQ [G61K] has an abundance fitness of -0.05 ± 0.085.
With MSAKKSPEELKGIFEKYAAKEGDPNQLSKEELKLLLQTEFPSLLKGPSTLDELFEELDKNIDGEVSFEEFQVLVKKISQ [G61I] the abundance fitness was -0.019 ± 0.088.
Work on MSAKKSPEELKGIFEKYAAKEGDPNQLSKEELKLLLQTEFPSLLKGPSTLDELFEELDKNRDGEVSFEEFQVLVKKISQ [G61R] yielded an abundance fitness of -0.042 ± 0.065.
MSAKKSPEELKGIFEKYAAKEGDPNQLSKEELKLLLQTEFPSLLKGPSTLDELFEELDKNCDGEVSFEEFQVLVKKISQ [G61C] showed an abundance fitness of 0.026 ± 0.08.
Variant MSAKKSPEELKGIFEKYAAKEGDPNQLSKEELKLLLQTEFPSLLKGPSTLDELFEELDKNEDGEVSFEEFQVLVKKISQ [G61E] has an abundance fitness of 0.067 ± 0.1.
In the case of MSAKKSPEELKGIFEKYAAKEGDPNQLSKEELKLLLQTEFPSLLKGPSTLDELFEELDKNTDGEVSFEEFQVLVKKISQ [G61T], the abundance fitness is reported as 0.006 ± 0.071.
MSAKKSPEELKGIFEKYAAKEGDPNQLSKEELKLLLQTEFPSLLKGPSTLDELFEELDKNLDGEVSFEEFQVLVKKISQ [G61L] showed an abundance fitness of -0.063 ± 0.064.
With MSAKKSPEELKGIFEKYAAKEGDPNQLSKEELKLLLQTEFPSLLKGPSTLDELFEELDKNMDGEVSFEEFQVLVKKISQ [G61M] the abundance fitness was -0.026 ± 0.091.
With MSAKKSPEELKGIFEKYAAKEGDPNQLSKEELKLLLQTEFPSLLKGPSTLDELFEELDKNPDGEVSFEEFQVLVKKISQ [G61P] the abundance fitness was 0.007 ± 0.079.
Work on MSAKKSPEELKGIFEKYAAKEGDPNQLSKEELKLLLQTEFPSLLKGPSTLDELFEELDKNQDGEVSFEEFQVLVKKISQ [G61Q] yielded an abundance fitness of -0.021 ± 0.084.
MSAKKSPEELKGIFEKYAAKEGDPNQLSKEELKLLLQTEFPSLLKGPSTLDELFEELDKNGDCEVSFEEFQVLVKKISQ [G63C] showed an abundance fitness of -0.04 ± 0.09.
MSAKKSPEELKGIFEKYAAKEGDPNQLSKEELKLLLQTEFPSLLKGPSTLDELFEELDKNGDMEVSFEEFQVLVKKISQ [G63M] showed an abundance fitness of -0.019 ± 0.08.
Work on MSAKKSPEELKGIFEKYAAKEGDPNQLSKEELKLLLQTEFPSLLKGPSTLDELFEELDKNGDKEVSFEEFQVLVKKISQ [G63K] yielded an abundance fitness of -0.017 ± 0.091.
MSAKKSPEELKGIFEKYAAKEGDPNQLSKEELKLLLQTEFPSLLKGPSTLDELFEELDKNGDAEVSFEEFQVLVKKISQ [G63A] gave an abundance fitness of -0.009 ± 0.08.
With MSAKKSPEELKGIFEKYAAKEGDPNQLSKEELKLLLQTEFPSLLKGPSTLDELFEELDKNGDSEVSFEEFQVLVKKISQ [G63S] the abundance fitness was -0.06 ± 0.065.
Variant MSAKKSPEELKGIFEKYAAKEGDPNQLSKEELKLLLQTEFPSLLKGPSTLDELFEELDKNGDVEVSFEEFQVLVKKISQ [G63V] has an abundance fitness of -0.079 ± 0.07.
For MSAKKSPEELKGIFEKYAAKEGDPNQLSKEELKLLLQTEFPSLLKGPSTLDELFEELDKNGDDEVSFEEFQVLVKKISQ [G63D], the abundance fitness was -0.005 ± 0.094.
Variant MSAKKSPEELKGIFEKYAAKEGDPNQLSKEELKLLLQTEFPSLLKGPSTLDELFEELDKNGDNEVSFEEFQVLVKKISQ [G63N] has an abundance fitness of -0.082 ± 0.1.
Work on MSAKKSPEELKGIFEKYAAKEGDPNQLSKEELKLLLQTEFPSLLKGPSTLDELFEELDKNGDLEVSFEEFQVLVKKISQ [G63L] yielded an abundance fitness of -0.13 ± 0.064.
For MSAKKSPEELKGIFEKYAAKEGDPNQLSKEELKLLLQTEFPSLLKGPSTLDELFEELDKNGDEEVSFEEFQVLVKKISQ [G63E], the abundance fitness was 0.118 ± 0.096.
MSAKKSPEELKGIFEKYAAKEGDPNQLSKEELKLLLQTEFPSLLKGPSTLDELFEELDKNGDREVSFEEFQVLVKKISQ [G63R] gave an abundance fitness of -0.029 ± 0.069.
With MSAKKSPEELKGIFEKYAAKEGDPNQLSKEELKLLLQTEFPSLLKGPSTLDELFEELDKNGDFEVSFEEFQVLVKKISQ [G63F] the abundance fitness was -0.124 ± 0.093.
In the case of MSAKKSPEELKGIFEKYAAKEGDPNQLSKEELKLLLQTEFPSLLKGPSTLDELFEELDKNGDHEVSFEEFQVLVKKISQ [G63H], the abundance fitness is reported as 0.093 ± 0.086.
With MSAKKSPEELKGIFEKYAAKEGDPNQLSKEELKLLLQTEFPSLLKGPSTLDELFEELDKNGDPEVSFEEFQVLVKKISQ [G63P] the abundance fitness was -0.036 ± 0.08.
MSAKKSPEELKGIFEKYAAKEGDPNQLSKEELKLLLQTEFPSLLKGPSTLDELFEELDYNGDGEVSFEEFQVLVKKISQ [K59Y] gave an abundance fitness of -0.079 ± 0.087.
Work on MSAKKSPEELKGIFEKYAAKEGDPNQLSKEELKLLLQTEFPSLLKGPSTLDELFEELDSNGDGEVSFEEFQVLVKKISQ [K59S] yielded an abundance fitness of 0.009 ± 0.061.
Work on MSAKKSPEELKGIFEKYAAKEGDPNQLSKEELKLLLQTEFPSLLKGPSTLDELFEELDVNGDGEVSFEEFQVLVKKISQ [K59V] yielded an abundance fitness of 0.087 ± 0.067.
For MSAKKSPEELKGIFEKYAAKEGDPNQLSKEELKLLLQTEFPSLLKGPSTLDELFEELDRNGDGEVSFEEFQVLVKKISQ [K59R], the abundance fitness was -0.003 ± 0.062.
In the case of MSAKKSPEELKGIFEKYAAKEGDPNQLSKEELKLLLQTEFPSLLKGPSTLDELFEELDWNGDGEVSFEEFQVLVKKISQ [K59W], the abundance fitness is reported as 0.065 ± 0.085.
With MSAKKSPEELKGIFEKYAAKEGDPNQLSKEELKLLLQTEFPSLLKGPSTLDELFEELDTNGDGEVSFEEFQVLVKKISQ [K59T] the abundance fitness was 0.007 ± 0.069.
